Experimental data from patent publication US20220089784A1 (University of California, published 2022).
Residue numbers refer to the chain shown, from its start.

T1: BoNT/B light chain (recombinant) (Clostridium botulinum, UniProt P10844 1-441)
T1 sequence: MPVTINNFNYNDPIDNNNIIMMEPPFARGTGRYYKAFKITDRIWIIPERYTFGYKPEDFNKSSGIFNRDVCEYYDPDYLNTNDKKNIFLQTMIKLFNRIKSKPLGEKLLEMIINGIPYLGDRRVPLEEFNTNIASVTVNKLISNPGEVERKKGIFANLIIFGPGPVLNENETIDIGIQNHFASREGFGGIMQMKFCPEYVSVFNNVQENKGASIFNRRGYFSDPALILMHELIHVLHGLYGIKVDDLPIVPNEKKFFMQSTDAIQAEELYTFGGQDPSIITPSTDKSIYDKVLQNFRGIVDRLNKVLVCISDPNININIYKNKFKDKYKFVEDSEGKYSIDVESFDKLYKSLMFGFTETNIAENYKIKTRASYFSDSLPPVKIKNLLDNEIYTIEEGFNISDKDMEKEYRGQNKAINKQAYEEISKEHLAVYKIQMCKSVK

T2: BoNT/F1 (proteolytic BoNT/F) (Clostridium botulinum, UniProt A7GBG3 1-1278)
T2 sequence: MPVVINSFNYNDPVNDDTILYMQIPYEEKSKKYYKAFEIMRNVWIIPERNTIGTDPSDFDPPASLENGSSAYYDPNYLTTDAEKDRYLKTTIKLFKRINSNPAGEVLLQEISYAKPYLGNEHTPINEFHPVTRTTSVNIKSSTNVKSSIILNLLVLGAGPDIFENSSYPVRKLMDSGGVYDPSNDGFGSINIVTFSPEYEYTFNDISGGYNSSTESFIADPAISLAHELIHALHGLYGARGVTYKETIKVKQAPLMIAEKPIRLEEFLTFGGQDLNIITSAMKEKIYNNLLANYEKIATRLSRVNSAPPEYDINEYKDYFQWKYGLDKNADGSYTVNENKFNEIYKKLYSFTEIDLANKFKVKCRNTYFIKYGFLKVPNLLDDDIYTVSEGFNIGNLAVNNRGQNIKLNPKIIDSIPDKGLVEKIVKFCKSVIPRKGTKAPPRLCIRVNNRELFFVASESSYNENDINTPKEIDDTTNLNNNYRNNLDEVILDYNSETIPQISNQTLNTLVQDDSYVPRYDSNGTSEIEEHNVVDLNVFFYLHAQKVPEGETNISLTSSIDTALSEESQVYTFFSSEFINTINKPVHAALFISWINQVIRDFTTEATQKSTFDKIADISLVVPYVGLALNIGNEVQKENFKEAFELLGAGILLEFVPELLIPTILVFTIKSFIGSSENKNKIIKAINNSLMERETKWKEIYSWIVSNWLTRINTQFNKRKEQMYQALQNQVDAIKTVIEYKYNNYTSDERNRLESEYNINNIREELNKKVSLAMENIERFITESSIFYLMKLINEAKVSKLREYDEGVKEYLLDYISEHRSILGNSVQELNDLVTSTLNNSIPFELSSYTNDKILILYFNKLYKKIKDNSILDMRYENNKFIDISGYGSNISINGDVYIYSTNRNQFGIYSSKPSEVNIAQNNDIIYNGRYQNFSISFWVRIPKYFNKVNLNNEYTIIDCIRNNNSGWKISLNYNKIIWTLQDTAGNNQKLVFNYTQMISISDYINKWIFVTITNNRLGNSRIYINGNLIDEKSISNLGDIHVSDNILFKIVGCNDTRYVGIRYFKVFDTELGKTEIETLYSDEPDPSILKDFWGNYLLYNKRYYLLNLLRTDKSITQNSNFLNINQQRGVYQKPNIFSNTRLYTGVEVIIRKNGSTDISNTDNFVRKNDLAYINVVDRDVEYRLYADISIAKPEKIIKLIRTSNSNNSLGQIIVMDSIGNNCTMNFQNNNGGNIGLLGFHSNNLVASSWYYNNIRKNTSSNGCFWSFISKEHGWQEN

B1: 1C7 scFv (scFv)
scFv: EVQLQQSGAELVRPGASVKMSCKASGYTFTSYNMHWVKQTPRQGLEWIGAIYPGNGDTSYNQKFKGKATLTVDKSSSTAYMQLSSLTSEDSAVYFCARTAGFYFDYWGQGTTLTVSSVDLKSGGSTSGSGKPGSGEGSSGSARDIVMTQSPAIMSASPGEKVTMTCSASSSVSYMYWYQQKPGSSPRLLIYYTSNLAPGVPARFSGSGSGNSYSLTISSMEGEDAATYYCQQFTSSPYTFGGGTKLEIK
notes: mouse
B2: 10C9 scFv (scFv)
scFv: QVQLQQSGAELVRPGTSVKLSCKASGYTFTSHWMHWVKQRPGQGLEWIGVIDPSDSYTNYNQKFKGKATLTVDTSSSTAYMQLSSLTSEDSAVYYCAIRRNYGMDYWGQGTSVTVSSVDLKSGGSTSGSGKPGSGEGSSGSARDIVMTQSPTSLAVSLGQRATISCKASQSVDYDGDSFMNWYQQKPGQPPKLLIYGASNLESGIPARFSGSGSRTDFTLTINPVEADDVATYYCQQSNEDPLTFGAGTKLELK
notes: mouse
B3: 31A5 scFv (scFv)
scFv: DVQLQESGPELVKPGASVKISCKASGYSFTDYNMNWVKQSNGKSLEWIGVINPNYGTTSYNQKFKGKATLTVDQSSSTAYMQLNSLTSEDSAVYYCARSGGTGYYFDYWGQGTTLTVSSVDLKSGGSTSGSGKPGSGEGSSGSARQIVLTQSPAILSASPGEKVTMTCRASSSVSYMHWYQQKPGSSPKAWIYATSNLASGVPARFSGSGSGTSYSLTISRVEAEDAATYYCQQWSSYPPTFGSGTKLEIK
notes: mouse
B4: 31A5.1 scFv (scFv)
scFv: B3 scFv with T165A, A190L, W191L, A194D, A204V, V222M, S244G
notes: mouse
B5: 31C3 scFv (scFv)
scFv: EVKLVETGPELKKPGETVKISCKASGYTFTNYGMNWVKQAPGKGLKWMGWINTNTGEPTYAEEFKGRFAFSLETSASTAFLQINNLKNEDTATYFCARGPIYYGTSYRFFDVWGTGTSVTVSSVDLKSGGSTSGSGKPGSGEGSSGSARQIVLTQSPAIMSASPGEKVTMTCRASSSVSSSYLHWYQQKPGSSPKLWIYSTSNLASGVPARFSGSGSGTSYSLTISRMEAEDAATYFCQQWSSFPPTFGGGTKLELK
notes: mouse
B6: 31E2 scFv (scFv)
scFv: EVKLVESGAELVRPGASVKLSCTASGFNIKDDYVHWVKQRPEQGLEWIGRIDPEDGETKYAPKFQGKATITADTSSNTAYLQLSSLTSEDTAVYYCALWSNWYFDVWGAGTTVTVSSVDLKSGGSTSGSGKPGSGEGSSGSAREIVLTQSPAIMSASPGEKVTMTCRASSSVSYMHWYQQKPGSSPKPWIYATSNLASGVPARFSGSGSGTSYSLTISRVEAEDAATYYCQQWTSNPPTFGGGTKLEIK
notes: mouse
B7: 31E2.20 scFv (scFv)
scFv: EVKLVESGAELVRPGASVKLSCTASGFNIKDDYVHWVKQRPEQGLEWIGRIDPEDGETKYAPKFQGKATITADTSSNTAYLQLSSLTSEDTAVYYCALWSNWYFDVWGAGTTVTVSAVDLKSGGSTSGSGKPGSGEGSSGSAREIVLTQSPEILSASPGEKVTMTCRASSSVSYMHWYQQKPGSSPKPWIYATSNLASGVPARFSGSGSGTSYSLTISSMEAEDAATYYCQQFHNYPPTFGAGTKLELK
notes: mouse
B8: 31G2 scFv (scFv)
scFv: QVQLQQSGAELVKPGASVKLSCTASGFNIKDTYMHWVKQRPEQGLEWIGRIDPEDGETKYAPKFQGKATITADTSSNTAYLQLSSLTSEDTAVYYCARWLLYYYAMDYWGQGTSVTVSAVDLKSGGSTSGSGKPGSGEGSSGSARQIVLTQSPALMAASPGEKVTITCSVSSSISSSNLHWYQQKSETSPKPWIYGTSNLASGVPARFSGSGSGTSYSLTISRVEAEDAATYYCHQRSSYPLTFGAGTKLEIK
notes: mouse
B9: 31H3 scFv (scFv)
scFv: EVQLQQSGAELVRPGASVKMSCKASGYPFTIYWITWVKQRPGQGLEWIGEIYPGSGFTKYNEKFRSKATLTVDTSSSTAYMQLSSLTSEDSAVYYCALYGSNFDYWGQGTTLTVSSVDLKSGGSTSGSGKPGSGEGSSGSARDIVMTQSPAIMSASPGEKVTMPCSASSSVSYMHWYQQKPGTSPKRWIYDTSKLASGVPARFSGSGSGTSYSLTISRVEAEDAATYYCQQWSSHPPTFGAGTRLEIK
notes: mouse
B10: 34E8B12 scFv (scFv)
scFv: QVQLVESGPDLVKPSQSLSLTCTVTGYSITSGYSWHWIRQFPGNKLEWMGYIHYSGSTNYNPSLKSRISITRDTSKNQFFLQLNSVTTEDTATYYCAVYYDYDGDYFDYWGQGTTLTVSSVDLKSGGSTSGSGKPGSGEGSSGSARDVVMTQSPAIMSASPGEKVTMTCSASSSVSYMYWFQQKPGSSPKPWIYRTSNLAPGVPARFSGSGSGTSYSLTISSMEAEDAATYYCQQWSSNPPWTFGGGTKLEIK
notes: mouse
B11: 39D1.1 scFv (scFv, V domains shown)
VH: EVQLVQSGGNLVQPGGSLRLSCAATGPIGSHWMTWVRQAPGQGLEWVANINLDGTEKFYVDSVKGRFTVSRDNRKSSVFLQMNNLRVDDTAVYYCARLQWGGYDGWLSPWGQGTLVTVSS
VL: DIVMTQSPPSLSASVGDRVSLTCRASEYIGTSLNWYQQKPGKAPKLLIYAASALHSGVPSRFSGSGSGTDFTLTISGLQPEDFATYYCQQANDLPLTFGGGTKLEIK
B12: 41A4 scFv (scFv, V domains shown)
VH: B11 VH
VL: B11 VL with A91T
B13: 41B7 scFv (scFv, V domains shown)
VH: B11 VH
VL: B11 VL with K42T
B14: 37B4 scFv (scFv, V domains shown)
VH: QVQLVQSGAEVKKPGSSVKVSCKASGGTFSSYAISWVRQAPGQGLEWMGGIIPIFGTANYAQKFQGRVTITTDTSTSTAYMELRSLRSDDTAVYYCARDEDYYDSSGYYDYWGQGTLVTVSS
VL: QTVVTQEPSLTVAPGGTVTLTCGSSAGAVTTDHYPSWFQKKPGQAPTTIIYDTTNKHSMTPGPARFSGSLLGGKAALTLSGAQPEDEAEYYCFLSYRGSRPVFGGGTKVTVL
B15: 38D11 scFv (scFv, V domains shown)
VH: QVQLQESGGGVVQPGRSLRLSCAASGFTFSSYGMHWVRQAPGKGLEWVAVIWYDGSNKYYADSVKGRFTISRDNSKNTLYLQMNSLRAEDTAVYYCARDKGWELMTNTDAFDIWGQGTLVTVSS
VL: not shown
B16: 18F2 scFv (scFv)
scFv: EVQLQQSGPELMKPGASVKISCKASGYAFSRSWMNWVKQRPGKGLEWIGRIYPGDGDTNYNGKFKDKASLTADTSSSTAYMQLSSLTSEDSAVYFCTKSEGYYHNLGAYWGQGTTVTVSSVDLKSGGSTSGSGKPGSGEGSSGSAREIVLTQSPAIMSASPGQKVTITCSASSSVSYMHWYQQKSGTSPKRWIYDTSKLASGVPARFSGSGSGTSYSLIISSMEAEDAATYYCQQWRSNPPTFGGGTRLEIK
notes: mouse

Key:
Test in all cases: yeast scFv FACS
[1] = biological target: BoNT/A light chain (recombinant) (Clostridium botulinum, UniProt P0DPI0 1-448)
[2] = biological target: BoNT/A1 holotoxin (Hall hyper) (Clostridium botulinum, UniProt P0DPI0 2-1296)
[3] = biological target: BoNT/A2 holotoxin (FRI-H1A2) (Clostridium botulinum, UniProt Q45894 2-1296)
[4] = biological target: T1, BoNT/B light chain (recombinant)
[5] = biological target: T2, BoNT/F1 (proteolytic BoNT/F)

Chain of BoNT/A2 holotoxin (FRI-H1A2) (Q45894 2-1296): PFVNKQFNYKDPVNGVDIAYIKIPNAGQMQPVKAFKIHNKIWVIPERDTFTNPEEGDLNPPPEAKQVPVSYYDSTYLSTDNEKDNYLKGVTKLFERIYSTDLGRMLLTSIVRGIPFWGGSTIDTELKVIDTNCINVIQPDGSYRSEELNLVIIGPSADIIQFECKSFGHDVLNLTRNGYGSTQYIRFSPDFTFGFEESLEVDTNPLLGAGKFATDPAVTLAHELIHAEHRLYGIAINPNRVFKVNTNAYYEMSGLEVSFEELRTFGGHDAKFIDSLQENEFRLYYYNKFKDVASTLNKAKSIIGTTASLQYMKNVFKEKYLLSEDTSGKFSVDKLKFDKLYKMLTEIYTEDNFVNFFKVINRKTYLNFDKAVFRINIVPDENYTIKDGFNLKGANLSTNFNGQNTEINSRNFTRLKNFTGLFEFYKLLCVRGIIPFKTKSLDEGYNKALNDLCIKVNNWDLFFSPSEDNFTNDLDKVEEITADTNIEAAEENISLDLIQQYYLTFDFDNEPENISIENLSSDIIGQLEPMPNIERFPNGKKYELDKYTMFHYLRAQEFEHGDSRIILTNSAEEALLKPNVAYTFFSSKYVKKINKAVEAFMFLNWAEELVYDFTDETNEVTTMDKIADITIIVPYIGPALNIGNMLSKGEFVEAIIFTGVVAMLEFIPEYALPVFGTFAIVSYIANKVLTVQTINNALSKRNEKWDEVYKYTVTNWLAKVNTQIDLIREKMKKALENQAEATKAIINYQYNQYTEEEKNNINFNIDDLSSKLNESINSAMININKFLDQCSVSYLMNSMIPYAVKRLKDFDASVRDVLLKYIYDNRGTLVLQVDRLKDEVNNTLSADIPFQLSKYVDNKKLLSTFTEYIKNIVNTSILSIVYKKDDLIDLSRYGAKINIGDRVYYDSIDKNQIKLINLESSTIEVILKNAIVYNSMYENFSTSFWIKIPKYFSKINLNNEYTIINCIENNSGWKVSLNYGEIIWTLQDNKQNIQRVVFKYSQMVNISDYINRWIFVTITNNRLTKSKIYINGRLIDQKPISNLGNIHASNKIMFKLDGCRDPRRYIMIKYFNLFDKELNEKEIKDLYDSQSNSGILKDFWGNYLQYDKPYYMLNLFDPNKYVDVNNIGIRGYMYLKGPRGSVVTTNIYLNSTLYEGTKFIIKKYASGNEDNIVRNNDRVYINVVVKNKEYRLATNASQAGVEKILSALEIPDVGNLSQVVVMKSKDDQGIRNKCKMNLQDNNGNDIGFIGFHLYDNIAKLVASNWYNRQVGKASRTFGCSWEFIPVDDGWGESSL

Row | Binder | Kd [4] [nM] | Kd [5] [nM] | also measured
1 | B1 |  |  | Kd [1]: 35.3 nM; binding result [2]: no binding; binding result [3]: no binding
2 | B2 |  |  | Kd [1]: 0.36 nM; Kd [2]: > 500 nM; Kd [3]: 112 nM
3 | B3 | 9.31 |  | 
4 | B4 | 1.75 |  | 
5 | B5 | 5.27 |  | 
6 | B6 | 17.1 |  | 
7 | B7 | 1.96 |  | 
8 | B8 | 3.34 |  | 
9 | B9 | 1.28 |  | 
10 | B10 | 2.44 |  | 
11 | B11 |  | 0.747 | 
12 | B12 |  | 0.533 | 
13 | B13 |  | 0.892 | 
14 | B14 |  | 10.1 | 
15 | B15 |  | 29.1 | 
16 | B16 | 1.05 |  | 
